Common to all, as to assay: cell-based or functional assay
The target in test [1] is Rs3367-CoV S protein (pcDNA3.1-Rs3367-CoV-S, on pseudovirus) (Rs3367-CoV (SARS-like virus from bats)).
Test [2] deals with SARS-CoV S protein (pcDNA3.1-SARS-CoV-S, on pseudovirus) (SARS-CoV), P59594.
The target in test [3] is WIV1-CoV S protein (pcDNA3.1-WIV1-CoV-S, on pseudovirus) (WIV1-CoV (SARS-like virus from bats)).

This note sets out measurements from patent US20220409694A1, “POLYPEPTIDE, AND PREPARATION METHOD THEREFOR AND USE THEREOF” (SHANXI JINBO BIO-PHARMACEUTICAL CO., LTD., priority 2020, published 2022).

Turning to SLDQINVTFLDLEYEMKKLEEAIKKLEESYIDLKEL (modifications not checked) [EK1], the Inhibitory Activity, IC50 (pseudovirus infection of HuH7, luciferase) worked out at 4000 nM in test [1], 1890 nM in test [2] and 2940 nM in test [3].
